Assay results as given in patent US20100247515A1 (DOMANTIS, published 2010).

Biological target: T1, TNFR1 on MRC-5 fibroblasts (UniProt P19438 30-455, limits assumed)
T1 sequence (looked up): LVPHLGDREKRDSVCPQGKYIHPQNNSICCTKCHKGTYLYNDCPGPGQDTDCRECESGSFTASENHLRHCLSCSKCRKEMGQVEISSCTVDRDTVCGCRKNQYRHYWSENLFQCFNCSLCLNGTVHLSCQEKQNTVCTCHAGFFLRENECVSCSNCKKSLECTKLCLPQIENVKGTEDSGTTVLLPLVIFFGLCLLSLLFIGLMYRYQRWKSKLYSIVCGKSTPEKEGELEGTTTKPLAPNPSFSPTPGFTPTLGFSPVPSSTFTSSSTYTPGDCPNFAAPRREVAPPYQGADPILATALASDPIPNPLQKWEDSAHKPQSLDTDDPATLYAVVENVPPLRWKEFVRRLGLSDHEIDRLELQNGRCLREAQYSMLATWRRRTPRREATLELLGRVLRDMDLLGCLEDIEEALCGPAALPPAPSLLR
Assay: cell-based or functional assay

B1: DOM1h-131-203 (other)
VH: EVQLWESGGGLVQPGGSLRLSCAASGFTFAHETMVWVRQAPGKGLEWVSHIPPDGQDPFYADSVKGRFTISRDNSKNTLYLQMNSLRAEDTAVYYCALLPKRGPWIDYWGQGTLVTVSS
B1 was tested, and the “ND50, MRC-5 cell-based assay” value was 2.28 nM.

B2: DOM1h-131-204 (other)
VH: EVQLSESGGGLVQPGGSLRLSCAASGFTFAHETMVWVRQAPGKGLEWVSHIPPDGQDPFYADSVKGRFTISRDNSKNTLYLQMNSLRAEDTAVYYCALLPNRGPWFDYWGQGTLVTVSS
With B2 the “ND50, MRC-5 cell-based assay” value was 1.89 nM.
